According to the FLAb antibody collection (doi:10.7554/elife.23156):

B1: scFv; the commonest letter at each place (parent)
chain 1: EVKLDETGGGLVQPGRPMKLSCVASGFTFSDYWMNWVRQSPEKGLEWVAQIRNKPYNYETYYSDSVKGRFTISRDDSKSSVYLQMNNLRVEDMGIYYCTGSYYGMDYWGQGTSVTVS
chain 2: DVVMTQTPLSLPVSLGDQASISCRSSQSLVHSNGNTYLRWYLQKPGQSPKVLIYKVSNRFSGVPDRFSGSGSGTDFTLKISRVEAEDLGVYFCSQSTHVPWTFGGGTKLEIK

Assays:
fluorescein = variants of: B1; experiment: Kd (Tite-Seq); details: with fluorescein; format: scFv 4-4-20, heavy + light
[1] = variants of: B1; experiment: yeast surface expression (ratio to wild type); higher = more expressed; details: format: scFv 4-4-20, heavy + light

Variant	Kd (fluorescein) [µM]	yeast surface expression [1]
chain 1 T28I N35R	≥ 10	0.849
chain 1 S101H Y103N	≥ 10	0.984
chain 1 T28N V37Y	≥ 10	1.05
chain 1 M105C D106E	≥ 10	0.902
chain 1 Y32S N35H	≥ 10	0.89
chain 1 Y102G Y103D	≥ 10	1.29
chain 1 Y102M D106T	≥ 10	1.07
chain 1 G100K M105D	≥ 10	0.375
chain 1 M34G V37R	≥ 10	1.62
chain 1 W33G V37L	≥ 10	0.49
chain 1 W33F N35Q	≥ 10	0.614
chain 1 W33F N35T	≥ 10	0.824
chain 1 G100S Y103P	≥ 10	0.689
chain 1 Y102L G109N	≥ 10	0.369
chain 1 S101P G104W	≥ 10	0.299
chain 1 Y103D Y107R	≥ 10	0.955
chain 1 M34R N35M	≥ 10	1.25
chain 1 G100R W108Y	≥ 10	0.478
chain 1 G100R W108C	≥ 10	0.246
chain 1 M105H Y107G	≥ 10	0.412
chain 1 F29W D31F	≥ 10	0.475
chain 1 S101T G104F	≥ 10	0.437
chain 1 Y107D G109R	≥ 10	0.366
chain 1 D31P Y32W	≥ 10	0.762

Variant	Kd (fluorescein) [µM]	yeast surface expression [1]
chain 1 M105D G109F	≥ 10	0.218
chain 1 N35T V37P	≥ 10	0.726
chain 1 S101P W108T	≥ 10	0.168
chain 1 G100E G104I	≥ 10	0.281
chain 1 G100P M105S G109M	≥ 10	0.234
chain 1 G104F Y107Q	≥ 10	0.401
chain 1 Y102N W108D	≥ 10	0.259
chain 1 W33Q W36K	≥ 10	0.466
chain 1 T28A W33R N35I	≥ 10	0.622
chain 1 S101L D106G	≥ 10	0.289
chain 1 M105W Y107P	≥ 10	0.452
chain 1 S30W D31V	≥ 10	0.463
chain 1 G100P G109S	≥ 10	0.485
chain 1 G100E	≥ 10	0.388
chain 1 G100L D106L	≥ 10	0.395
chain 1 M105Y W108N	≥ 10	0.301
chain 1 D31N N35T	≥ 10	0.86
chain 1 M34K W36C	≥ 10	0.509
chain 1 W33A N35S W36M	≥ 10	0.823
chain 1 S101L Y103S M105A	≥ 10	0.713
chain 1 F29I N35I	≥ 10	0.383
chain 1 Y32V V37I	≥ 10	1.03
chain 1 W33R W36Y	≥ 10	0.561
chain 1 S30F N35T W36P	≥ 10	1.41

Variant	Kd (fluorescein) [µM]	yeast surface expression [1]
chain 1 S30M M34P	≥ 10	2.67
chain 1 G104T Y107P	≥ 10	0.313
chain 1 G100F G109V	≥ 10	0.253
chain 1 S101F M105I	≥ 10	0.522
chain 1 M34I N35Y V37Y	≥ 10	0.45
chain 1 G104I M105S	≥ 10	0.592
chain 1 D31G W33Q	≥ 10	0.657
chain 1 S101H M105V	≥ 10	0.592
chain 1 Y102N G104Q	≥ 10	0.924
chain 1 D31G N35H	≥ 10	0.64
chain 1 S101K	≥ 10	0.463
chain 1 G100T M105T	≥ 10	0.909
chain 1 Y103R G109I	≥ 10	0.291
chain 1 Y103R G109V	≥ 10	0.47
chain 1 M34G N35Q	≥ 10	0.503
chain 1 F29I M34T	≥ 10	0.54
chain 1 G100Q S101Q	≥ 10	0.263
chain 1 G100F M105K	≥ 10	1.1
chain 1 W33A V37N	≥ 10	0.49
chain 1 G104I G109K	≥ 10	0.246
chain 1 D106F Y107G	≥ 10	0.238
chain 1 S101N Y102M	≥ 10	0.944
chain 1 W33C	≥ 10	0.827
chain 1 F29A D31P	≥ 10	0.922

Variant	Kd (fluorescein) [µM]	yeast surface expression [1]
chain 1 S101T M105T	≥ 10	0.928
chain 1 S101L Y102V	≥ 10	0.401
chain 1 G100V Y107N G109P	≥ 10	0.341
chain 1 G100P D106M	≥ 10	0.537
chain 1 M105P G109I	≥ 10	0.208
chain 1 G104W G109E	≥ 10	0.167
chain 1 G104Y Y107H	≥ 10	0.59
chain 1 T28K W33M	≥ 10	1.03
chain 1 G104F D106K	≥ 10	0.201
chain 1 M34C N35I	≥ 10	0.462
chain 1 G104V Y107I	≥ 10	0.443
chain 1 Y107P	≥ 10	0.414
chain 1 Y32H M34Q	≥ 10	0.862
chain 1 S30C Y32V	≥ 10	0.7
chain 1 Y103S G104D	≥ 10	1.12
chain 1 W36H V37E	≥ 10	0.267
chain 1 Y102A G109K	≥ 10	0.279
chain 1 S101N Y103N	≥ 10	1.21
chain 1 G104Y	≥ 10	0.464
chain 1 G104L	≥ 10	0.556
chain 1 Y32G M34C	≥ 10	0.676
chain 1 M34N W36E	≥ 10	0.587
chain 1 Y102M W108K	≥ 10	0.392
chain 1 S30K Y32S M34V	≥ 10	0.837

Now from value to variant, other results behind:

Kd (fluorescein) [µM]	Variant	yeast surface expression [1]
≥ 10	chain 1 T28H M34H V37R	2.76
0.0265	chain 1 Y32H	1.03
0.064	chain 1 Y32R	0.954
1.63	chain 1 Y32G	0.961
≥ 10	chain 1 Y102Q M105V	1.05
≥ 10	chain 1 G100D S101W	0.171
≥ 10	chain 1 G104L W108G	0.178
0.00638	chain 1 D31L	0.509
≥ 10	chain 1 M34Q W36E	2.19
0.0692	chain 1 M34K N35A	0.175
≥ 10	chain 1 G100P W108M	0.572
≥ 10	chain 1 G100W Y102N D106L	0.286
≥ 10	chain 1 F29C S30C	0.693
≥ 10	chain 1 S30Y W36A	0.404
≥ 10	chain 1 M105N Y107I	1.2
≥ 10	chain 1 G100Q W108N	0.289
≥ 10	chain 1 W33S M34T	0.463
≥ 10	chain 1 Y102K G109I	0.226
≥ 10	chain 1 Y102R Y107N	0.81
≥ 10	chain 1 S30F W36D	0.448
≥ 10	chain 1 G100N G104Y	0.185
≥ 10	chain 1 S101F G104I	0.187
0.216	chain 1 Y32E W36Q	0.493

Kd (fluorescein) [µM]	Variant	yeast surface expression [1]
≥ 10	chain 1 D31I W33D	0.632
0.0434	chain 1 Y32A M34V	0.941
≥ 10	chain 1 S30V Y32D	0.745
≥ 10	chain 1 S30L N35T	0.699
≥ 10	chain 1 M105D W108T	0.455
≥ 10	chain 1 N35H	0.793
≥ 10	chain 1 N35V	0.596
≥ 10	chain 1 N35W	0.6
≥ 10	chain 1 N35M	0.715
≥ 10	chain 1 G100N M105T	0.413
≥ 10	chain 1 S101D M105T	0.799
≥ 10	chain 1 Y32H N35D	0.772
≥ 10	chain 1 F29P M34C	0.755
0.00827	chain 1 D31Q V37P	0.0981
0.00827	chain 1 S30R D31R	0.684
0.00135	chain 1 S30I V37C	0.464
≥ 10	chain 1 M34H N35I	0.552
0.0154	chain 1 T28V F29W	0.491
≥ 10	chain 1 G100R S101I	0.352
6.61	chain 1 F29D Y32K W33Y	1.18
≥ 10	chain 1 M105H G109T	0.442
≥ 10	chain 1 M34H V37P	0.3
≥ 10	chain 1 N35E W36E	1.23

Kd (fluorescein) [µM]	Variant	yeast surface expression [1]
≥ 10	chain 1 S30G N35P W36F	0.718
≥ 10	chain 1 G100Y G109L	0.306
0.00708	chain 1 T28Y S30L	0.792
0.000804	chain 1 T28Y S30P	1.08
≥ 10	chain 1 Y32A W36N	1.17
0.000989	chain 1 T28P S30N	1.1
0.105	chain 1 M105I Y107W	0.669
≥ 10	chain 1 F29L M34C	0.745
≥ 10	chain 1 Y107A G109M	0.209
≥ 10	chain 1 S30V D31P	0.754
≥ 10	chain 1 D31E W33N	0.845
0.00301	chain 1 Y103K	1.04
0.00493	chain 1 Y103C	0.775
0.0015	chain 1 Y103M	1.27
≥ 10	chain 1 S30K Y32E	0.857
≥ 10	chain 1 W33V V37F	0.82
≥ 10	chain 1 Y103E W108R	0.463
≥ 10	chain 1 S30Q W33N	0.979
≥ 10	chain 1 M34L N35P	1.48
≥ 10	chain 1 G104R D106M	0.275
≥ 10	chain 1 Y103T W108S	0.244
0.00519	chain 1 T28G V37P	0.581
≥ 10	chain 1 W33C V37W	0.503

Kd (fluorescein) [µM]	Variant	yeast surface expression [1]
≥ 10	chain 1 N35H W36S	0.692
≥ 10	chain 1 F29W S30I	0.599
≥ 10	chain 1 Y107D W108N	0.477
≥ 10	chain 1 T28V N35H	0.671
≥ 10	chain 1 T28F N35C	0.644
≥ 10	chain 1 Y102D D106Q	0.733
≥ 10	chain 1 T28L N35D W36N	0.674
3.55	chain 1 T28Q V37L	0.864
≥ 10	chain 1 G100I Y107P	0.276
0.00309	chain 1 Y102F	0.776
0.0175	chain 1 Y102N	1.04
0.11	chain 1 S30R M34S	0.717
≥ 10	chain 1 S30R N35F	0.413
≥ 10	chain 1 S101D Y102F	0.93
≥ 10	chain 1 M34H	0.737
0.00966	chain 1 T28V M34Y	0.889
≥ 10	chain 1 D31L W33D	0.81
≥ 10	chain 1 G100N D106I	0.203
≥ 10	chain 1 G104E G109Y	0.384
0.0107	chain 1 S30M V37E	0.721
≥ 10	chain 1 T28I Y32T	0.869
0.0391	chain 1 F29T S30C	0.804
≥ 10	chain 1 Y103C D106L	0.589

Kd (fluorescein) [µM]	Variant	yeast surface expression [1]
≥ 10	chain 1 G104M M105R	0.619
≥ 10	chain 1 D106M Y107C	0.228
≥ 10	chain 1 G104T D106Y	0.331
≥ 10	chain 1 T28L M34D	0.101
≥ 10	chain 1 F29R Y32Q	0.633
≥ 10	chain 1 D31H M34Q	0.268
≥ 10	chain 1 W33M M34I	0.708
≥ 10	chain 1 F29A W36H	0.912
≥ 10	chain 1 F29R V37S	0.385
≥ 10	chain 1 S30Y Y32S W33T	0.934
≥ 10	chain 1 Y102G G104F	0.545
≥ 10	chain 1 G100W G109S	0.43
0.00708	chain 1 Y102T M105K	0.849
0.0391	chain 1 D31T Y32G	0.798
0.0494	chain 1 D31T M34Y	0.706
0.0391	chain 1 Y107N G109S	0.836
0.00638	chain 1 T28S F29Q	0.969
0.921	chain 1 G100T	0.994
5.96	chain 1 Y102L Y107S	1.78
5.37	chain 1 D106T Y107V	0.829
0.00184	chain 1 T28D	1.15
0.00158	chain 1 T28H	0.965
0.000988	chain 1 T28K	1.07

Kd (fluorescein) [µM]	Variant	yeast surface expression [1]
0.0162	chain 1 S30K N35G	1.03
0.00785	chain 1 T28S V37S	0.757
0.000783	chain 1 F29Y	0.978
0.0318	chain 1 F29P	1.05
0.000724	chain 1 S101A	0.836
0.00606	chain 1 F29M D31N Y32A	1.2
0.00226	chain 1 F29I Y32K	1.07
0.00708	chain 1 F29K M34Y	0.801
4.48	chain 1 M105C	0.861
0.000504	chain 1 S30E D31N	0.934
0.021	chain 1 G104Y G109R	1.08
0.00493	chain 1 S30T M34I	0.678
6.27	chain 1 Y102V Y103G Y107F	1.12
0.0233	chain 1 G100S Y102T	0.74
0.00251	chain 1 Y102S M105K	1.02
0.0104	chain 1 Y107N	0.775
0.0017	chain 1 Y107F	0.928
0.000846	chain 1 Y107W	1.11
0.000351	chain 1 S30G D31H S101A Y102S D106E W108L	0.844
5.66	chain 1 F29Q V37A	0.847
